In the Immune Epitope Database (IEDB):

Key:
HLA-B*18:01 = assay: IEDB peptide-MHC binding, purified MHC/competitive/radioactivity; filed as Kd, often an IC50 or EC50 that approximates it; ≥ and ≤ were set here for values at or beyond the usual limits of such assays
HLA-B*40:01 [1] = assay: as above
HLA-B*40:02 = assay: as above
HLA-B*44:02 [2] = assay: as above
HLA-B*44:03 = assay: as above
HLA-B*45:01 = assay: as above
HLA-A*01:01 = assay: IEDB peptide-MHC binding, purified MHC/direct/fluorescence; filed as Kd, often an IC50 or EC50 that approximates it; ≥ and ≤ were set here for values at or beyond the usual limits of such assays
HLA-A*02:01 = assay: as above
HLA-A*03:01 = assay: as above
HLA-A*11:01 = assay: as above
HLA-A*24:03 = assay: as above
HLA-A*26:01 = assay: as above
HLA-A*31:01 = assay: as above
HLA-A*69:01 = assay: as above
HLA-B*07:02 = assay: as above; conditions: source organism: Escherichia coli
HLA-B*08:01 = assay: as above; conditions: source organism: Escherichia coli O157:H7
HLA-B*15:01 = assay: as above
HLA-B*27:05 = assay: as above
HLA-B*40:01 [3] = assay: as above
HLA-B*44:02 [4] = assay: as above
HLA-B*58:01 = assay: as above
[5] = source organism: Mammarenavirus lassaense
[6] = source organism: SARS coronavirus Tor2
[7] = source organism: Escherichia coli O157:H7
[8] = source organism: Escherichia coli
[9] = source organism: Giardia lamblia ATCC 50803

GEPKESTPM
Kd (HLA-B*18:01; [5]): ≥ 77.5 µM
Kd (HLA-B*40:01 [1]; [5]): 1.18 µM
Kd (HLA-B*40:02; [5]): 0.191 µM
Kd (HLA-B*44:02 [2]; [5]): 9.34 µM
Kd (HLA-B*44:03; [5]): ≥ 78.1 µM
Kd (HLA-B*45:01; [5]): ≥ 77.7 µM

GETALALLLL
Kd (HLA-B*18:01; [6]): ≥ 48.1 µM
Kd (HLA-B*40:01 [1]; [6]): 0.0161 µM
Kd (HLA-B*40:02; [6]): 0.0162 µM
Kd (HLA-B*44:02 [2]; [6]): 1.34 µM
Kd (HLA-B*44:03; [6]): 0.149 µM
Kd (HLA-B*45:01; [6]): 1.9 µM

GLKRGGVLL
Kd (HLA-A*01:01; [7]): ≥ 20 µM
Kd (HLA-A*02:01; [8]): 2.05 µM
Kd (HLA-A*03:01; [7]): ≥ 20 µM
Kd (HLA-A*11:01; [7]): ≥ 20 µM
Kd (HLA-A*24:03; [8]): ≥ 20 µM
Kd (HLA-A*26:01; [7]): ≥ 20 µM
Kd (HLA-A*31:01; [7]): ≥ 20 µM
Kd (HLA-A*69:01; [7]): ≥ 20 µM
Kd (HLA-B*07:02): 8.28 µM
Kd (HLA-B*08:01): ≥ 20 µM
Kd (HLA-B*15:01; [8]): 0.919 µM
Kd (HLA-B*27:05; [7]): ≥ 20 µM
Kd (HLA-B*40:01 [3]; [7]): ≥ 20 µM
Kd (HLA-B*44:02 [4]; [7]): ≥ 20 µM
Kd (HLA-B*58:01; [7]): ≥ 20 µM

GMLSSLHTL
Kd (HLA-A*01:01; [9]): ≥ 20 µM
Kd (HLA-A*02:01; [9]): 0.0187 µM
Kd (HLA-A*03:01; [9]): ≥ 20 µM
Kd (HLA-A*11:01; [9]): ≥ 20 µM
Kd (HLA-A*24:03; [9]): 0.215 µM
Kd (HLA-A*26:01; [9]): ≥ 20 µM
Kd (HLA-A*31:01; [9]): ≥ 20 µM
Kd (HLA-A*69:01; [9]): ≥ 20 µM
Kd (HLA-B*15:01; [9]): 0.255 µM
Kd (HLA-B*27:05; [9]): 2.7 µM
Kd (HLA-B*40:01 [3]; [9]): ≥ 20 µM
Kd (HLA-B*44:02 [4]; [9]): ≥ 20 µM
Kd (HLA-B*58:01; [9]): 5.05 µM
